What was measured:
HGREM1-His (ACRO) [1] = target: T1, HGREM1-His (ACRO) (human, UniProt O60565 25-184); assay: competition ELISA, Gremlin-his 0.25 ug/ml binding to coated FGFR1-Fc
T1 construct: Lys25-Asp184 of NP_037504 with C-terminal polyhistidine tag (ACRO GR1-H52H3); they are put here; also called hGREM1 (ACRO); human gremlin (ACRO)
T1 sequence: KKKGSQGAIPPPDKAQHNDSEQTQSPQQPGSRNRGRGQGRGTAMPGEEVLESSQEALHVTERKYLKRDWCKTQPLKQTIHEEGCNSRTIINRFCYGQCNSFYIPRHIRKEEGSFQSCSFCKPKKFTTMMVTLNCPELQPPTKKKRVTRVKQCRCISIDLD
Procedure: Next, 0.25 μg/ml of gremlin was selected to test the blocking activity. The ability of antibodies to block Gremlin binding to human FGFR1-Fc was examined via ELISA. Plates were coated with recombinant FGFR1-Fc (2 μg/ml) overnight and then serial dilutions of antibodies were incubated with 0.25 μg/ml of human Gremlin-his modified for 1 h at RT before this complex was added to coated plates and allowed to incubate for an additional hour at RT. The plates were then washed and added with anti-his HRP (GenScript). Plates were then developed with a TMB solution and stopped by adding stop solution. The plates were read on a plate reader at 450 nm. […] Humanized anti-GREM1 antibodies provided herein (e.g., Hu14E3, Hu22F1) are expected to show the similar technical effect as their chimeric counterparts in blocking the binding of hGREM1 to FGFR1.

DAN-his (Sinobiological) [2] = target: T2, DAN-his (Sinobiological) (human, UniProt P41271 17-181, limits assumed); assay: ELISA on coated DAN-his; unit from the axis Ab(nM); panel called FIG. 19C in the text
T2 construct: also called DAN (Sinobiological); human DAN-his
T2 sequence (looked up): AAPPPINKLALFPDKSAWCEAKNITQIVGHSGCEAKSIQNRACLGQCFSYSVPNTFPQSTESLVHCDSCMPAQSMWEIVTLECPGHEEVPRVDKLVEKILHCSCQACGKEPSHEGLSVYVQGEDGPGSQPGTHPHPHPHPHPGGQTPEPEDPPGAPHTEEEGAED
Procedure: (§1) Clear polystyrene plates (BEAVER) were coated with 100 μl/well of a 0.5 μg/ml human gremlin (ACRO) and DAN (Sinobiological) in high pH coating buffer overnight at 4° C. Then the plates were washed once on an automatic plate washer using PBS+0.1% Tween 20 (Sigma). 100 μl of block solution consisting of PBS+1% BSA+1% normal goat serum+0.5% Tween 20 (Sigma) was added to each well and incubated at room temperature for 2 hours. Then 100 ul of antibodies (hybridoma or chimeric antibody 36F5, chimeric antibody 67G11, chimeric antibody 42B9) in antibody dilution buffer containing PBS+1% BSA+1% normal goat serum+0.01% Tween 20 starting from 2 μg/ml (13.33 nM) and then 4 fold serial dilution were added to each well of the plate and incubated for 1 hours at room temperature. Afterward the plates were washed three times with 200 ul of PBS+0.1% Tween20 followed by adding 100 μl/well 1:10000 Goat anti mouse IgG-HRP or mouse anti-human IgG-HRP (abcam), and incubate for 1 hour at room temperature. They were then washed 3× with PBS+0.1% Tween20. Finally, 100 μl/well of TMB (InnoReagents) was added to each well and after 2 minutes add 50 ul of stop solution to each well. The plates were read on a Multiscan FC microplate reader (Thermo Scientific) at 450 nm.

DAN-his (Sinobiological) [3] = target: T2, DAN-his (Sinobiological); assay: ELISA on coated DAN-his; unit from the axis label Ab(ug/ml), the table prints none
Procedure: as §1

HGREM1-His (ACRO) [4] = target: T1, HGREM1-His (ACRO); assay: ELISA on coated Gremlin-his; unit from the axis label Ab(ug/ml), the table prints none
Procedure: as §1

DAN-his (Sinobiological) [5] = target: T2, DAN-his (Sinobiological); assay: blocking ELISA: coated BMP4, antibody pre-incubated with human DAN-his, anti-his HRP; blocked ligand BMP4; unit from the axis Concentration(nM) [Continued]
Procedure: (§2) Plates were coated with recombinant human BMP2/4 (0.5 μg/ml) overnight. Then the plates were washed once on an automatic plate washer using PBS+0.1% Tween 20 (Sigma). 100 μl of block solution consisting of PBS+1% BSA+1% normal goat serum+0.5% Tween 20 (Sigma) was added to each well and incubated at room temperature for 2 hours. Then the plates were washed three 3 times. Then 55 ul serial dilutions of chimeric antibodies 36F5 and 55 ul […] of human DAN-his in dilution buffer containing PBS+1% BSA+1% normal goat serum+0.01% Tween 20 separately were mixed and incubated for 1 h at RT before 100 ul of this complex was added to coated plates and allowed to incubate for an additional hour at room temperature. The plates were then washed 3 times and added with 100 ul of anti-his HRP (GenScript) in dilution buffer. Plates were then developed with a TMB solution and stopped by adding stop solution. After wash three times with wash buffer, the plates were read on a plate reader at 450 nm. Also, consistent with previous result, besides blocking gremlin activity, 36F5 could block BMP2/4 binding to DAN protein. (FIGS. 20A and 20B).

DAN-his (Sinobiological) [6] = target: T2, DAN-his (Sinobiological); assay: blocking ELISA: coated BMP2, antibody pre-incubated with human DAN-his, anti-his HRP; blocked ligand BMP2; unit from the axis Concentration(nM)
Procedure: as §2

HGREM1-His (ACRO) [7] = target: T1, HGREM1-His (ACRO); assay: ELISA on coated human Gremlin-his; unit from the axis Ab(nM); panel called FIG. 19C in the text
Procedure: as §1

IC50 (HGREM1-His (ACRO) [1]): 1.37 nM
EC50 (DAN-his (Sinobiological) [2]): 0.0211 nM
EC50 (DAN-his (Sinobiological) [3]): 0.02 µg/mL
EC50 (HGREM1-His (ACRO) [4]): 0.0238 µg/mL
IC50 (DAN-his (Sinobiological) [5]): 3.93 nM
IC50 (DAN-his (Sinobiological) [6]): 3.29 nM
EC50 (HGREM1-His (ACRO) [7]): 0.0183 nM
B1: chimeric antibody 36F5 (36F5-chi) (antibody, human IgG1, V domains shown)
VH: QVQLQQSGAELARPGASVKLSCKASGYSFTSSGIGWVKQRSGQGLEWIGEIYPRSGNTYNNEKFKGKATLTADKSSSTVYMELRSLTSEDSAVYFCVREAYSHHYYAMDYWGQGTSVTVFS
VL: DVLMTQTPLSLPVSLGGQASISCRSSQSLLHSNGNTYLEWYLQKPGQSPKLLIYKVSNRFSGVPDRLSGSGSGTDFTLKISRVEAEDLGVYYCFQGSHVPFTFGSGTKLEIN
notes: also called chimeric 36F5
